Patent US20220411491A1 (Hoffmann-La Roche, published 2022)
Residue numbers refer to the chain shown, from its start.

B1: P1AE5739 (antibody, V domains shown)
VH: EVQLVESGGGVVQPGRSLRLSCAASGFSFSNYGMAWVRQAPGKGLEWVASISTGGGNTYYRDSVKGRFTISRDNAKNTLYLQMNSLRAEDTAVYYCTRHDRGGLYWGQGTMVTVSS
VL: DIVMTQSPLSLPVTPGEPASISCRSSKSLLHSNGITYVYWYLQKPGQSPQVLIYRMSNLASGVPDRFSGSGSGTDFTLKISRVEAEDVGVYHCGQLLENPYTFGQGTKLEIK
B2: P1AE5745 (antibody, V domains shown)
VH: B1 VH with E1Q, R61A, A75S
VL: B1 VL with Q47K
B3: P1AE5761 (antibody, V domains shown)
VH: B1 VH with V11L, R16G, R61A
VL: B1 VL with Q47K
B4: P1AE5750 (antibody, V domains shown)
VH: B1 VH with R61A
VL: B1 VL
B5: P1AE5756 (antibody, V domains shown)
VH: B1 VH with V11L, R16G
VL: B1 VL with Q47K
B6: P1AE5735 (antibody, V domains shown)
VH: B1 VH with E1Q, A75S
VL: B1 VL with Q47K
B7: P1AE5736 (antibody, V domains shown)
VH: B1 VH with E1Q, A75S
VL: B1 VL with V51L, L59R
B8: P1AE5751 (antibody, V domains shown)
VH: B1 VH with R61A
VL: B1 VL with Q47K
B9: P1AE5741 (antibody, V domains shown)
VH: B1 VH
VL: B1 VL with V51L, L59R
B10: P1AE5757 (antibody, V domains shown)
VH: B1 VH with V11L, R16G
VL: B1 VL with V51L, L59R
B11: P1AE5746 (antibody, V domains shown)
VH: B1 VH with E1Q, R61A, A75S
VL: B1 VL with V51L, L59R
B12: P1AE5755 (antibody, V domains shown)
VH: B1 VH with V11L, R16G
VL: B1 VL
B13: P1AE5760 (antibody, V domains shown)
VH: B1 VH with V11L, R16G, R61A
VL: B1 VL
B14: P1AE5744 (antibody, V domains shown)
VH: B1 VH with E1Q, R61A, A75S
VL: B1 VL
B15: P1AE5762 (antibody, V domains shown)
VH: B1 VH with V11L, R16G, R61A
VL: B1 VL with V51L, L59R
B16: P1AE5740 (antibody, V domains shown)
VH: B1 VH
VL: B1 VL with Q47K
B17: P1AE5734 (antibody, V domains shown)
VH: B1 VH with E1Q, A75S
VL: B1 VL
B18: P1AE5752 (antibody, V domains shown)
VH: B1 VH with R61A
VL: B1 VL with V51L, L59R

target: human GPRC5D (human, UniProt Q9NZD1 1-345); experiment: cell-based or functional assay
Sequence (Q9NZD1 whole entry): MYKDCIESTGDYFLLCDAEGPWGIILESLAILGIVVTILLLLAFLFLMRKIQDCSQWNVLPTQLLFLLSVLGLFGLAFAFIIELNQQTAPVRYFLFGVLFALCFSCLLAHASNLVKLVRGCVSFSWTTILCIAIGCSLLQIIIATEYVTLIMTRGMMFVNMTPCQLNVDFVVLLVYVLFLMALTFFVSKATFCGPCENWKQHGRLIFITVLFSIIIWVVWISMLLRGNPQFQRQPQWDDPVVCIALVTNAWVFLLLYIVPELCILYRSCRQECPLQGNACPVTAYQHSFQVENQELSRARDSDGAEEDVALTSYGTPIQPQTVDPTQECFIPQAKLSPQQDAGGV

CAR-J2 EC50	Binder
0.0235 mg/L	B1
0.00162 mg/L	B2
0.0746 mg/L	B3
0.0206 mg/L	B4
0.17 mg/L	B5
0.0821 mg/L	B6
0.00138 mg/L	B7
0.00644 mg/L	B8
0.0014 mg/L	B9
0.145 mg/L	B10
0.514 mg/L	B11
0.152 mg/L	B12
0.19 mg/L	B13
0.00363 mg/L	B14
0.0842 mg/L	B15
0.00896 mg/L	B16
0.0415 mg/L	B17
0.509 mg/L	B18
